From publication doi:10.1101/2025.09.11.675649

Target: Amuc1033^6S-GlcNAc (Akkermansia muciniphila) (UniProt B2UQX4)
Assay: SEC-MALS

Amuc1033^6S-GlcNAc (from UniProt B2UQX4 1-581) (enzyme)
stoichiometry N: 2
